The record followed here is article doi:10.1101/2022.01.05.475064.

T1: NtHY5 (6xHis-HY5) (Nicotiana tabacum, UniProt A0A1S3YJY6 1-158)
T1 sequence: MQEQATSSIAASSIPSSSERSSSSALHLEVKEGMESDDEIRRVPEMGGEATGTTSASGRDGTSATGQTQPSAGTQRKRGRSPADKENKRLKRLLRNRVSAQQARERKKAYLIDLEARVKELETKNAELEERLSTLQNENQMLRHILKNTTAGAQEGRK

B1: NtPMT Mut P2 (G-mut II) (dsDNA)
DNA 1: TACTGTTTCCGCAATCTTCTCTTCATCAGG
DNA 2: CCTGATGAAGAGAAGATTGCGGAAACAGTA
B2: NtPMT Mut P1 (G-mut I) (dsDNA)
DNA 1: CAGTCTAACCATGATTAATGTAATGATTTT
DNA 2: AAAATCATTACATTAATCATGGTTAGACTG
B3: NtODC Mut P1 (dsDNA)
DNA 1: ATCTGATCACCTAATATCACCAAGAAAATA
DNA 2: TATTTTCTTGGTGATATTAGGTGATCAGAT
B4: NtPMT P2 (G-BOX II) (dsDNA)
DNA 1: TACTGTTTCCGCAACGTGCTCTTCATCAGG
DNA 2: CCTGATGAAGAGCACGTTGCGGAAACAGTA
B5: NtPMT P1 (G-BOX I) (dsDNA)
DNA 1: CAGTCTAACCATGCACGTTGTAATGATTTT
DNA 2: AAAATCATTACAACGTGCATGGTTAGACTG
B6: NtQPT P1 (G-BOX I) (dsDNA)
DNA 1: CATAAATAAAACGTGTTCAGCTACTAAAAC
DNA 2: GTTTTAGTAGCTGAACACGTTTTATTTATG
B7: NtMYB12 P1 (G-BOX I) (dsDNA)
DNA 1: AACTTGAAATAATACGTTAAAAGATAAAA
DNA 2: TTTTATCTTTTAACGTATTATTTCAAGT
B8: NtMYB12 P2 (G-BOX II) (dsDNA)
DNA 1: AGTCAACTTTGCAACGTAAAAGTCCACACA
DNA 2: TGTGTGGACTTTTACGTTGCAAAGTTGACT
B9: NtQPT Mut P1 (dsDNA)
DNA 1: CATAAATAAAATTCATTCAGCTACTAAAAC
DNA 2: GTTTTAGTAGCTGAATGAATTTTATTTATG
B10: NtODC P1 (G-BOX I) (dsDNA)
DNA 1: ATCTGATCACCTAACGTGACCAAGAAAATA
DNA 2: TATTTTCTTGGTCACGTTAGGTGATCAGAT

The data set concerns the target T1, NtHY5 (6xHis-HY5). Nature of the data set: EMSA. For orientation: A gel shift assay detects complexes by their altered migration in electrophoresis.
Consider B1, for which the binding result was “no binding”.
For B2, the binding result is “no binding”.
As to B3, the binding result is recorded as “no binding”.
On to B4, for which the binding result was “binds”.
For B5 the value was “binds”; for B6, “binds”; for B7, “binds”.
For B8 the value was “binds”; for B9, “no binding”; for B10, “binds”.
